Here are results for 23 variants from IntAct's records for PubMed 35512704.

B1: Mothers against decapentaplegic homolog 4 (Homo sapiens), Q13485 (parent)
chain: MDNMSITNTPTSNDACLSIVHSLMCHRQGGESETFAKRAIESLVKKLKEKKDELDSLITAITTNGAHPSKCVTIQRTLDGRLQVAGRKGFPHVIYARLWRWPDLHKNELKHVKYCQYAFDLKCDSVCVNPYHYERVVSPGIDLSGLTLQSNAPSSMMVKDEYVHDFEGQPSLSTEGHSIQTIQHPPSNRASTETYSTPALLAPSESNATSTANFPNIPVASTSQPASILGGSHSEGLLQIASGPQPGQQQNGFTGQPATYHHNSTTTWTGSRTAPYTPNLPHHQNGHLQHHPPMPPHPGHYWPVHNELAFQPPISNHPAPEYWCSIAYFEMDVQVGETFKVPSSCPIVTVDGYVDPSGGDRFCLGQLSNVHRTEAIERARLHIGKGVQLECKGEGDVWVRCLSDHAVFVQSYYLDREAGRAPGDAVHKIYPSAYIKVFDLRQCHRQMQQQAATAQAAAAAQAAAVAGNIPGPGSVGGIAPAISLSAAAGIGVDDLRRLCILRMSFVKGWGPDYPRQSIKETPCWIEIHLHRALQLLDEVLHTMPIADPQPLD
partner: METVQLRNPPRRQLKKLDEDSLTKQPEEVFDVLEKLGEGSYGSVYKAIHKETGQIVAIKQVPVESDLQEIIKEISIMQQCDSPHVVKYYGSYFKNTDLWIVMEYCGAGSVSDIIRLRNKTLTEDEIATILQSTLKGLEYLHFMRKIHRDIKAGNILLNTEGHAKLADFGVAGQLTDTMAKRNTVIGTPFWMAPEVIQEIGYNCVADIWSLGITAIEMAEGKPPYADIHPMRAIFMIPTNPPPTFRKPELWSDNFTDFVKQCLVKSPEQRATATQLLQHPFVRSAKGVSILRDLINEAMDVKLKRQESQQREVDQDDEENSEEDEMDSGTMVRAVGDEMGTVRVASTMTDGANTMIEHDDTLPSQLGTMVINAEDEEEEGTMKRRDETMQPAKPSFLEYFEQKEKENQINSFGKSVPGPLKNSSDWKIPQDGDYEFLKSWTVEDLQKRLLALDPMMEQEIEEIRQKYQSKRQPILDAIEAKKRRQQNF
B2: Mothers against decapentaplegic homolog 4 (Homo sapiens), Q13485 (parent)
chain: B1 chain
partner: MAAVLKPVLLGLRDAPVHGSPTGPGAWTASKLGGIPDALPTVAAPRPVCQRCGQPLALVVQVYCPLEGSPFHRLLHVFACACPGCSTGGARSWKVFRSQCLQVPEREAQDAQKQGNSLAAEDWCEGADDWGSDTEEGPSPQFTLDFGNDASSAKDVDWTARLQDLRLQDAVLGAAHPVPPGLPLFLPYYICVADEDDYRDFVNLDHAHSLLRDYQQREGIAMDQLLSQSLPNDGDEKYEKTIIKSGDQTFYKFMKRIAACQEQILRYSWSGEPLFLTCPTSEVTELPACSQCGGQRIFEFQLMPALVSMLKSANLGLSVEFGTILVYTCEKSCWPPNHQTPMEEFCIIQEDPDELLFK
B3: Mothers against decapentaplegic homolog 4 (Homo sapiens), Q13485 (parent)
chain: B1 chain
partner: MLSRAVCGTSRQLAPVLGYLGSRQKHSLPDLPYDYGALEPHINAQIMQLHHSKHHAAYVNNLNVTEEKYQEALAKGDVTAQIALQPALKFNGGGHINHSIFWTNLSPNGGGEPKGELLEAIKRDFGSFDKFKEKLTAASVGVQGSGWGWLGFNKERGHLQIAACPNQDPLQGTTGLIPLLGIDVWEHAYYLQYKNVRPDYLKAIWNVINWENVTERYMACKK
B4: Mothers against decapentaplegic homolog 4 (Homo sapiens), Q13485 (parent)
chain: B1 chain
partner: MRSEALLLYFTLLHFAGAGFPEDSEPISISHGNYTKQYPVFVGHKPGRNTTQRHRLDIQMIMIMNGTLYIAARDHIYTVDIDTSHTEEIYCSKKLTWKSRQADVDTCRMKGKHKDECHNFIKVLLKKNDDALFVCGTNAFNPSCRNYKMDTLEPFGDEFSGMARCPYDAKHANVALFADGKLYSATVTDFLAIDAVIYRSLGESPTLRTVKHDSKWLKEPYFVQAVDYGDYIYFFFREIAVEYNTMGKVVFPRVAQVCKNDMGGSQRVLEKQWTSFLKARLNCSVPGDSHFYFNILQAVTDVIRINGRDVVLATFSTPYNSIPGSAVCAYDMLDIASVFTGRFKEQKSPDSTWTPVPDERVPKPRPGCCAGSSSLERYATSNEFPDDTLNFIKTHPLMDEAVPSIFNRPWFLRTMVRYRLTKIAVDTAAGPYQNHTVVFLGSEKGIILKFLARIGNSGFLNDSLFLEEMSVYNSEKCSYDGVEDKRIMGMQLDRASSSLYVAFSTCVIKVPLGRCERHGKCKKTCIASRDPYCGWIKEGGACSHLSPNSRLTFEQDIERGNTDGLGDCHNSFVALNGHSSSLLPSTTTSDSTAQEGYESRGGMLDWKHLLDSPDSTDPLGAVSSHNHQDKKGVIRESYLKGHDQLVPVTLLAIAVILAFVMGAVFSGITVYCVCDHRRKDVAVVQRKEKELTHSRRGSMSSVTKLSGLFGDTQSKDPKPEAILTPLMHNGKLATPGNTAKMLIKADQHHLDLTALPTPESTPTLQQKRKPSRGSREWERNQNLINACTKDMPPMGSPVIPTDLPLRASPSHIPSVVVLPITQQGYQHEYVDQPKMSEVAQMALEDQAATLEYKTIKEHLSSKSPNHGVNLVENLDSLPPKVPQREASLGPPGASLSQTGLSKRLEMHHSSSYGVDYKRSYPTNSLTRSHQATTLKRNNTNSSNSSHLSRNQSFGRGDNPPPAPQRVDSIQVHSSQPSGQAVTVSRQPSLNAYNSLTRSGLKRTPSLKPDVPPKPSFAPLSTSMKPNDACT
B5: Mothers against decapentaplegic homolog 4 (Homo sapiens), Q13485 (parent)
chain: B1 chain
partner: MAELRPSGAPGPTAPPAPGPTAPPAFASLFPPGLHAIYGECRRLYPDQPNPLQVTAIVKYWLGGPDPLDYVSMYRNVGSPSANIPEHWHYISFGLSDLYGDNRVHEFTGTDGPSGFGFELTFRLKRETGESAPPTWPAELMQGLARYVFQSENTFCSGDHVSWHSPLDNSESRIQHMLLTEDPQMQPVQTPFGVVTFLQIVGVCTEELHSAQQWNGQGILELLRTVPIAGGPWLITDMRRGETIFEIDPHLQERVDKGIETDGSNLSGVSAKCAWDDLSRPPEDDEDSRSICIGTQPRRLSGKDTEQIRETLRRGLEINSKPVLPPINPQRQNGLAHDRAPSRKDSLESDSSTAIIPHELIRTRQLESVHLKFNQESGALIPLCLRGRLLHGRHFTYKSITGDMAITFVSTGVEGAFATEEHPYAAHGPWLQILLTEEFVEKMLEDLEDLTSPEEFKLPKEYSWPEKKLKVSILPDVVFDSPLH
B6: Mothers against decapentaplegic homolog 4 (Homo sapiens), Q13485 (parent)
chain: B1 chain
partner: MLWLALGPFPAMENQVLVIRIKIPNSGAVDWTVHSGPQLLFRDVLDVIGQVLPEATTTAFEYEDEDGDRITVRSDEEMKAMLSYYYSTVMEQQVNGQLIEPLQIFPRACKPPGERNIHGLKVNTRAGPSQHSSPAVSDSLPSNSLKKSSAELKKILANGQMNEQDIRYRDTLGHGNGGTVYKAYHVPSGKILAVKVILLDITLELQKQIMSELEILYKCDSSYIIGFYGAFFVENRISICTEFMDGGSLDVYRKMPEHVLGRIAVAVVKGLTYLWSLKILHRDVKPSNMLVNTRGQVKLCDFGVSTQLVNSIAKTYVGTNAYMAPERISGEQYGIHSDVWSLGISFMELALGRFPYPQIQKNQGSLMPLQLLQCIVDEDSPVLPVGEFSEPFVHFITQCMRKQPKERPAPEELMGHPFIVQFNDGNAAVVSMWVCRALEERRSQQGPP

The first experiment covers variants of B1. As to conditions: with stk4_human STK4, Q13043.
On to R361C, for which the “effect of a mutation on the interaction” value was “with no effect”.

A further experiment covers variants of B1. As to conditions: with stk4_human STK4, Q13043. This is another data set of the same source.
Take R361H: the “effect of a mutation on the interaction” value is listed as “with no effect”.

In a further experiment the parent is B1. The settings on record: with stk4_human STK4, Q13043. The source holds these as a separate data set.
With G386D, the “effect of a mutation on the interaction” value was “with no effect”.

Variants of B1 are the subject of another experiment. As to conditions: with stk4_human STK4, Q13043. This is another data set of the same source.
For the variant D351H, the “effect of a mutation on the interaction” value is “with no effect”.

In the next experiment the parent is B2. As to conditions: with pdd2l_human PDCD2L.
As for D351H, the “effect of a mutation on the interaction” value is reported as “with no effect”.

The variants in another experiment derive from B2. The settings on record: with pdd2l_human PDCD2L. The source holds these as a separate data set.
Turning to R361C, the “effect of a mutation on the interaction” value was “with no effect”.

In the next experiment the parent is B2. As to conditions: with pdd2l_human PDCD2L. This is another data set of the same source.
Regarding R361H, the “effect of a mutation on the interaction” value is recorded as “with no effect”.

In a further experiment the parent is B2. The settings on record: with pdd2l_human PDCD2L. The source holds these as a separate data set.
Take G386D: the “effect of a mutation on the interaction” value is reported as “with no effect”.

In a further experiment the parent is B3. As to conditions: with sodm_human SOD2, P04179.
For D351H, the “effect of a mutation on the interaction” value is on record as “with no effect”.

Another experiment covers variants of B3. The settings on record: with sodm_human SOD2, P04179. This is another data set of the same source.
For R361H, the “effect of a mutation on the interaction” value was “with no effect”.

A further experiment covers variants of B3. As to conditions: with sodm_human SOD2, P04179. This is another data set of the same source.
For R361C, the “effect of a mutation on the interaction” value is “with no effect”.

In a further experiment the parent is B3. As to conditions: with sodm_human SOD2, P04179. The source holds these as a separate data set.
G386D: the “effect of a mutation on the interaction” value is “with no effect”.

Variants of B4 are the subject of a further experiment. As to conditions: with sem6a_human SEMA6A.
As for D351H, the “effect of a mutation on the interaction” value is reported as “with no effect”.

Another experiment covers variants of B4. As to conditions: with sem6a_human SEMA6A. The source holds these as a separate data set.
On to R361H, for which the “effect of a mutation on the interaction” value is “with no effect”.

Variants of B4 are the subject of a further experiment. The settings on record: with sem6a_human SEMA6A. The source holds these as a separate data set.
For R361C, the “effect of a mutation on the interaction” value was “with no effect”.

Variants of B4 are the subject of another experiment. The settings on record: with sem6a_human SEMA6A. The source holds these as a separate data set.
As for G386D, the “effect of a mutation on the interaction” value is on record as “with no effect”.

Variants of B5 are the subject of another experiment. The settings on record: with sufu_human SUFU.
On to D351H, for which the “effect of a mutation on the interaction” value is “with no effect”.

Another experiment covers variants of B5. As to conditions: with sufu_human SUFU. The source holds these as a separate data set.
For the variant R361H, the “effect of a mutation on the interaction” value is listed as “with no effect”.

In a further experiment the parent is B5. The settings on record: with sufu_human SUFU. This is another data set of the same source.
For R361C, the “effect of a mutation on the interaction” value is listed as “with no effect”.

Variants of B5 are the subject of a further experiment. As to conditions: with sufu_human SUFU. The source holds these as a separate data set.
On to G386D, for which the “effect of a mutation on the interaction” value was “with no effect”.

Variants of B6 are the subject of a further experiment. The settings on record: with mp2k5_human MAP2K5, Q13163.
G386D: the “effect of a mutation on the interaction” value was “with no effect”.

The next experiment covers variants of B6. As to conditions: with mp2k5_human MAP2K5, Q13163. The source holds these as a separate data set.
In the case of R361C, the “effect of a mutation on the interaction” value is “with no effect”.

The variants in another experiment derive from B6. As to conditions: with mp2k5_human MAP2K5, Q13163. The source holds these as a separate data set.
For R361H, the “effect of a mutation on the interaction” value is given as “with no effect”.
